Results as given in the supplement of paper PMC12042874.
± gives the uncertainty stated by the source.

Experiment: amyloid nucleation score (Sup35N fusion, yeast selection) (log enrichment); library NNK2; higher = more nucleation; inactive = no reads after selection
Procedure, shortened: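 Sup35N fusions to peptides of 20 random codons were expressed in psi-negative yeast, induced 24 hours with 100 μM copper sulfate, and grown 7 days at 30°C on medium lacking adenine and uracil. Input and output plasmid inserts were sequenced by Illumina. The nucleation score is the DiMSum log enrichment of output over input reads, centred on the mode score of non-aggregating sequences. Sequences with under 100 input reads were excluded.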

Substance | amyloid nucleation score
KCVRTTVLHNRRVPDGLTMP | 0.678 ± 0.33
ERTCSIRDPNRDIPGFPFSY | inactive
ETCSAVFIN | 0.041 ± 0.62
WHSDSQTRRSSLSLLVCQID | 0.935 ± 0.66
FYRGLVDHRMNFITFNCGRQ | 5.6 ± 0.095
FPWYCVGYVRSKRDRKVAWS | 0.04 ± 0.34
IMWYFIINWHP | 4.79 ± 0.074
LSWAHVVICLIW | inactive
GSVREQNFISRASLYAHGLS | -0.095 ± 0.29
PSIDSCRGRLVVRVQIRVEN | -1.24 ± 1.1
GSYTHARINSVIFNRYTLCS | 0.219 ± 1
VFWHMSIIHIVCRIILSKDW | inactive
IRFWSKSGFVQGCSIRISLS | 0.02 ± 1
LVTSCLQVEW | 0.284 ± 0.28
DDVYNSGYKELIRSQ | 0.348 ± 0.25
SGHTFVFFYDSK | 5.95 ± 0.061
FTFTRQSAGAHRYDIFVPRT | 0.17 ± 0.41
RFVVSEGLIGVVGSSKLILY | 0.106 ± 1
QCFDFTD | 1.1 ± 0.38
QGNSETGGNMCYDASCWLYG | -0.064 ± 0.45
SNCRQSPYNNQVI | 0.155 ± 1.1
TFCICPFNAEV | 7.35 ± 0.029
GYVFASSVD | 0.791 ± 0.81
YMIYCFITVGCFISTLHYCG | 1.68 ± 0.15
SLFVITYRPAYSSDFILNGG | 0.763 ± 0.43

Substance | amyloid nucleation score
DHRILILLTPQFSYDIWTVH | inactive
ICWPMGICLNNSDSVLLGEC | inactive
TVNFYKRWSDCQLMSFIVRV | inactive
VVRHSLKRL | -0.228 ± 1.1
SVVYSFTRMPVGIFLMISEL | -0.552 ± 0.35
DLYSSV | 0.75 ± 0.41
YLRMDLVKWKWVGDGSQVC | 2.86 ± 0.08
YGPWSCLI | inactive
YSGDRDTVLYHCTRVGAESV | 0.109 ± 0.63
YVGSFVGSGIVLLNNSAVRH | 3.4 ± 0.14
AWRDTHWTASCRSGSRRILS | 4.59 ± 0.046
TFYCTSCFLLMSVMSFHRLL | 1.89 ± 0.13
LCMRTFGLHHCPGYG | 1.2 ± 0.37
CCYLFRSLRLVGSQIFSQSL | 0.35 ± 0.8
RRFVLARVPNNKCPQTIRLD | 0.733 ± 0.48
ITLTLTVCTGLCWKYGRRMW | 4.49 ± 0.071
CLFVTVGFCICCLFFLWFCL | 5 ± 0.1
SKFNFIYCAGDQLSYRYRLG | -0.728 ± 1
IIRPVFILNLPYLFRCVG | 0.465 ± 0.28
QLYRCPFCHGGALSYYIRKV | inactive
NDSTLGRLSYNLRDLRSQKM | -0.502 ± 0.79
IVNLARLKCSMCRECCGRVL | 2.64 ± 0.12
SGDLMYSGRTSPMPAAQKFV | -0.393 ± 1.1
FWVPSLSTYLSFFGKFRDWA | -0.347 ± 0.5
EVEIVAWFGLHHSWWH | 3.25 ± 0.08

Substance | amyloid nucleation score
SMRVYHSHLNWFH | 6.63 ± 0.063
YDLCGTALTVLGTVIY | 1.15 ± 0.27
TKLEYNTE | 0.118 ± 0.77
KDVTVNIRWTLIQLLYHTNF | 4.08 ± 0.11
VSIFMQRR | 2.76 ± 0.13
LVLRQLVR | inactive
HLFLRFADSSYWIS | 1.24 ± 0.35
LVPPVLGAHVSNKVDVILHA | -0.199 ± 1.1
SFIWHLPFVC | 1.24 ± 0.4
HRKAYEPWFGCNMTYAGLGN | -0.232 ± 0.65
TGSRNIWTRVVFLYCFRVHG | -0.939 ± 0.54
FGLMLRTS | 0.062 ± 0.41
CILEHRSEQWYCYLWPARRG | 4.24 ± 0.078
NRLPFKYLSIDIYPCLASLA | -0.3 ± 0.26
LFESMPGCDDSNELIFWGIA | -0.722 ± 0.28
RLPFYVW | inactive
CLAVSSDVDSQGKGIRIYIL | -1.24 ± 1.1
VYPVSPIMKGV | 0.163 ± 0.49
NACPVCSRW | 0.589 ± 0.38
VLVGVEWFV | 0.318 ± 0.38
IMSFKFENC | 1.78 ± 0.26
LSHRNPASRNYRPWQLNC | 0.245 ± 0.29
YSDKHM | -1.27 ± 0.64
VPRSQIVVGIMFP | -1.06 ± 0.55
TMFASHFCWYALYYVCILNF | 0.066 ± 1

Substance | amyloid nucleation score
KILDWRGWSRGSGPLTSSTW | 1.04 ± 0.38
SFQPMRQFNFMINLWTVGAA | 7.179 ± 0.056
YMFYPNCRSRC | 0.59 ± 0.15
KDFVG | 2.62 ± 0.11
TIYMMSRDFRF | 4.748 ± 0.028
IMFMGNTVIRDCDLQ | 4.32 ± 0.062
CYSYWPRSPFIWY | -0.978 ± 1.1
GLTLFVRSLALRNYVCDWSP | 0.149 ± 0.36
IHLRWPMKRLVYTYCFYFYS | -0.788 ± 0.76
VLPTEYSGFFSTRQLPSLDS | 0.137 ± 0.79
NRSIVYGYFQLYENFNWPFS | 0.913 ± 0.19
VFRYAGRCRNGIVGLYGATM | 4.677 ± 0.046
WCFFRVAFNW | 1.88 ± 0.17
LSAKSTCTAYNRAGSARTEY | -0.072 ± 1.1
STVMWLRASLRIQNYTRGDT | 4.54 ± 0.052
RVSTVFSLKTRRCEFLFQCV | 0.24 ± 0.35
LHQGKPYITLALYRFLHGSR | -1.15 ± 1.1
DDSTFKSRFVLGIPAICLGS | -1.37 ± 0.4
IGVQVFPRMHVG | 3.06 ± 0.15
VCSTLVSFHHQRVKKVDAV | -1.12 ± 0.78
FFWNAGCSELFGEGHYNSLL | inactive
GYTRNHSLCFFFRMLYM | -1.29 ± 1
FIVCALIKEHILTYPGKVFV | inactive
WSCNRNCSIFDR | -0.373 ± 0.45
FIEHT | -0.716 ± 0.45

Substance | amyloid nucleation score
VGVLNSIKPYLCVSAKRKCV | 0.09 ± 0.74
FSEFIYLCTSLMDARQGMVP | -0.804 ± 1.1
SKHFIVTVLTAITSNVSFSM | 2.38 ± 0.066
CITLMYNTPFYKITALWQPF | -0.484 ± 0.78
DKFISLFKRGAHKDVQ | -0.42 ± 0.76
IWIKVTRLRVGFLKRVLVVA | -1.44 ± 0.55
SLVYKGLCILSTLFLYFDFL | -0.337 ± 1
IMMNNMAVIFR | 6.3 ± 0.083
VCSNCNMDVTSYQASCKAYL | 0.783 ± 0.53
SINYKALAS | inactive
RTSHSLRWMVRPYRRADPMR | 0.691 ± 0.54
ADQWGTRVWPGWEFVLEVAA | 1.33 ± 0.31
GGERYHPYYDAA | 0.268 ± 0.54
YLTNNLVLWFDICDEERYWW | 5.45 ± 0.059
NQKSLFVARETSTMFPSPYV | -0.141 ± 0.38
TNVINRCLSPCFGRSLFNIV | -0.805 ± 1.1
AGFYHPSNFGCLGSGLLRTM | inactive
FVSRSLNSQGQWFRSMTECR | -0.517 ± 0.36
ASVNSRSINSSGQFPPCFRK | -0.434 ± 0.61
SVVFDYCSGIVSRY | -0.483 ± 1.1
SPYAFACAGCSGVKG | 0.234 ± 0.26
VGSSRFLRDGVTRGLSMSGS | -1.07 ± 0.41
NENTLNMMKVWVTGGLSTRK | 2.89 ± 0.17
TTEYG | 0.239 ± 0.5
VTKILCSRTWGKSG | 0.325 ± 0.44

Substance | amyloid nucleation score
GTRTISLKGPSGYYA | -0.689 ± 0.41
LTIDTTFVITSRYTCQLWQR | 4.2 ± 0.056
KRAMPLSLTSRRLWISSGTG | -0.708 ± 1.1
ELGHDYYSCCGFSAREYMEH | 4.56 ± 0.065
LWYMMYLRPLWVRPKIDNEV | 1.11 ± 0.24
YWTPYCIVIH | -0.965 ± 0.78
KLCKF | 3.27 ± 0.073
HGGQEAVHLRRCGGYDMSKA | 0.451 ± 0.42
YGYCIISHTLNLLLGQYLCY | 4.99 ± 0.068
SHFADSKVHVWSMSQLATCC | 0.22 ± 0.29
MVSFGSGGELFFMHTQFSAR | -0.311 ± 0.64
CRYPFTPACTYMNLG | -0.114 ± 1
PTMFNFKIYQIVRVGLPIHL | -1.53 ± 0.76
LFSTYRNFIFVIHSADMCKS | -0.558 ± 1
TVYEMGASMLVKILHWKVLN | -0.801 ± 0.38
YCCFMSRHGSKWHYVNICIF | inactive
MDTSYMVLCYKSQRRRSGSR | 0.776 ± 0.2
LRLLISV | 0.306 ± 0.25
CTSVKQNDLKGSLIN | inactive
RYRSTLQYISVMGLDNT | -0.608 ± 0.54
VSEANVTYINFFC | 4.36 ± 0.089
SNFVTVSGTPPHIILMCKDW | 4.71 ± 0.055
KDKGVCSQLYRDLVWRDEVF | -0.035 ± 0.31
MQLNNG | 0.075 ± 0.21
TELKEGLYAGIHFNTGTG | -0.457 ± 0.64

Substance | amyloid nucleation score
GLPVCYNRVT | -1.22 ± 1
LILSSSSLVGVALRRVYCVT | -0.809 ± 0.34
RSVLWSSMVGV | 1.39 ± 0.44
CVGDAALWWVVFIYGEHSRV | 0.022 ± 0.41
HLTNLDFT | -1.1 ± 0.44
ARTWGAAIWFMGN | 4.09 ± 0.093
NSMTQFCIQCGGTTIAWSMF | 6.663 ± 0.039
YILSWARFIEYDYLTPRVYS | 0.356 ± 0.57
NIKFHVFDLCDSPHGWLPDR | 0.224 ± 0.56
VFTCGVVPYPYKNTLKYKCF | -0.319 ± 0.4
GKYCYPL | -0.81 ± 0.32
DHLNGASRRMWLLTYFTVFE | inactive
DLGIYSLTNFKMLPST | 0.544 ± 0.52
FLSINISISRVLLSDCTS | 3.05 ± 0.12
GSAFGGRRLFEGLRGGIREW | 0.665 ± 0.4
FSCFIIYVGQKTACNSNTAL | 4.57 ± 0.08
FCLTVLVV | 4.18 ± 0.11
YGKIL | -0.956 ± 1
VAGSS | -0.101 ± 0.29
EMYRCGWCLWMHNRLTATVR | 1.86 ± 0.28
SWGSVRNRMCMSGGRKSSDA | inactive
IWNWRQYLYVLGADRFSYMC | 4.19 ± 0.049
